Molecular target: T1, EIIA^Glc (UniProt P69783 2-169)
T1 construct: EIIA^Glc, functional subunit of Enzyme II of the bacterial glucose phosphotransferase system; Species is stated only for enzyme I (E. coli); source: purified as previously described (Garrett et al. 1999; Xing et al. 2014)
Experiment: SPR + ELISA; no accurate KD obtained; format and conditions not told
Settings: both partners purified

T1 sequence (P69783 2-169): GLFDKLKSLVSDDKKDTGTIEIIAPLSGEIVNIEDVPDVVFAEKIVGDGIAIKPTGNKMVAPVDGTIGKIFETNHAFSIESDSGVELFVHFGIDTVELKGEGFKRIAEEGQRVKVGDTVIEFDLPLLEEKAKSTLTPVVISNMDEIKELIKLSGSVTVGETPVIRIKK

- Kd: > 10 µM
B1: EIIB^Glc (domain or fragment)
chain: EDATEDAKATGTSEMAPALVAAFGGKENITNLDACITRLRVSVADVSKVDQAGLKKLGAAGVVVAGSGVQAIFGTKSDNLKTEMDEYIRN
notes: EIIB^Glc, functional subunit of Enzyme II of the bacterial glucose phosphotransferase system; Species is stated only for enzyme I (E. coli); source: purified as previously described (Garrett et al. 1999; Xing et al. 2014)

From PMC10166511, “Fast cross-linking by DOPA2 promotes the capturing of a stereospecific protein complex over nonspecific encounter complexes” (Biophysics Reports, 2022)
